Results: the nanobody polyreactivity screen of Harvey et al. (2022)

experiment: yeast display, Sf9 membrane polyspecificity reagent, FACS + sequencing; frameworks hold sequencing errors
Procedure, shortened: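 A nanobody's polyreactivity label depends on the gate it was sorted from. Yeast display cells were stained with 10% biotinylated, detergent-solubilized Sf9 membrane reagent for 1 hour at 4 °C, enriched on streptavidin microbeads and sorted by FACS. The low and high (top ~1%) gates were set on anti-HA fluorescence for expression and streptavidin fluorescence for reagent binding.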

Sequence	polyreactivity (PSR sort gate)
QVQLVESGGGLVQAGGSLRLSCAASGSIFEYYAMGWYRTAPGKERELVAAISSGGPTYYADSVKGRFTISRDNAKNTVYLQMNSLKPEDSAVYYCNADLWYPDYDYWGQGTQVTVSS	low polyreactivity
QVQLVESGGGLVQAGGSLRLSCAASGSIFFEYAMGWSRQAPGKERELVASINRGGGSTYYSDSVKGRFTISRDNAKNTVYLQMNSLKPEDTAVSYCAAQWKYRQSYLDYYSGQGTQVTVSS	low polyreactivity
QVQLVESGGGLVQAGGSLRLSCAASGSIFFEYAMGWYRQAPGKERELVASINRGGGSTYYADSVKGRFTISRDNAKNTVYLQMNSLKPEDTAVYYCAAQWKYRQSYLDYYWGQGTQVTVSS	low polyreactivity
QVQLVESGGGLVQAGGSLRLSCAASGSIFFFNAMGWYRQAPGKEREMVAAISESGTSTYYADSVKGRFTISRDNAKNTVYLQMNSLKPEDTAVYYCNVVFRYAYGVYYTPEFYYWGQGTQVTVSS	low polyreactivity
QVQLVESGGGLVQAGGSLRLSCAASGSIFFGNAMGWYRQAPGKERELVAASTTSGGSTYYADSVKGRFTISRDNAKNTVYLQMNSLKPEDTAVYYCNAEYRTGVDGPRSRGGDYWGQGTQVTVSS	low polyreactivity
QVQLVESGGGLVQAGGSLRLSCAASGSIFFGNDKGWYRQAPGKERELVAGISNGGRTNYADSVKGRFTISRDNAKNTVYLQMNSLKPEDTAVYYCAKHPVYIYWSRVLVGYYSWGQGTQVTVSS	low polyreactivity
QVQLVESGGGLVQAGGSLRLSCAASGSIFFGNVMGWYRQAPGKERELVAVISWSGGTTYYADSVKGRFTISRDNAKNTVYLQMNSLKAEYTAVYYCNARYLRRGDYWGQGTQVTVSS	low polyreactivity
QVQLVESGGGLVQAGGSLRLSCAASGSIFFHYAMGWYIQAPGKERELVAAITWDGGSTYYADSVKGRFTISRDNAKNTVYLQMNSLKPEDTAVYYCNADQDLSTDEDYWGQGTQVTVSS	low polyreactivity
QVQLVESGGGLVQAGGSLRLSCAASGSIFFIYDMGWYRQAPGKERELVADITSGGGSTFYADSVKGRFTISRDNAKNTVYLQMNSLKPEDTAVYYCATDDHDQPGGQLYITEVNYWGQGTQVTVSS	low polyreactivity
QVQLVESGGGLVQAGGSLRLSCAASGSIFFLYAMGWYRQAPGKERELVAAISRSGVSTYYADSVKGRFTISRDNAKNTVYLQMNSLKPEDTAVYYCNRRVPVTRSRYYYWGQGTQVTVSS	high polyreactivity
QVQLVESGGGLVQAGGSLRLSCAASGSIFFPYAMGWYRQAPGKERELVAAIDTSSGSTYSADSVKGRFTISRDNAKNTVYLQMNSLKPEDTAVYYCAREALQYPGLKYNYWGQGTQVTVSS	low polyreactivity
QVQLVESGGGLVQAGGSLRLSCAASGSIFFQYAMGWYRQAPGKERELVAAISTGGSTNYADSVKGRFTISRDNAKNTVYLQMNSLKPEETAVYYCAAYSRYKGYQYDYWGQGTQVTVSS	low polyreactivity
QVQLVESGGGLVQAGGSLRLSCAASGSIFFRNAMGWYRQAPGKERELVAAITSGGSTYYADSVKGRFTISRDNAKNTVYLQMNSLKPEDTAVYYCNREFWRSSSYRYYYWGQGTQVTVSS	high polyreactivity
QVQLVESGGGLVQAGGSLRLSCAASGSIFFRNAMGWYRQAPGKERELVATIDWSGGYTDYADTVKGRFTISRDNAKNTVYLQMNSLKPEETAVYYCATGRYDRYYNFWYYYWGQGPQVTVSS	high polyreactivity
QVQLVESGGGLVQAGGSLRLSCAASGSIFFRYAMGWYRQAPGKERELVAAISDSGGTTYYADSVKGRFTISRDNAKNTVYLQMNSLKPEDTAVYYCAARFIYYSNRYYRYREFNYWGQGTQVTVSS	high polyreactivity
QVQLVESGGGLVQAGGSLRLSCAASGSIFFVYGMGWYRQAPGKERELVAAISGGITNYADSVKGRFTISRDNAKNTVNLQMNSLKPEDTAVYYCAAYTPSYGGRDYWGQATQVTVSS	low polyreactivity
QVQLVESGGGLVQAGGSLRLSCAASGSIFFWNDMGWYRQAPGTERELVAAISWSGGSTSYADSVKGRFTISRDNAKNTVYLQMNSLKPEDTAVYYCAADYYYRTLYGYIGMDYWGQGTQVTVSS	low polyreactivity
